Assay results published in the DeepSol protein solubility set.

Assay: soluble on expression in E. coli; label from the status in PepcDB or PDB records

Question: Which “soluble on expression in E. coli” value does the source give for “MHHHHHHSSGRENLYFQGFRGTDPGDVVIEELFNRIPQANVRTTSEYMQSAADSLVSTSLWNTGQPFRVESELGERPRTLVRGTVLGQEDPYAYLEATDQETGESFEVHVPYFTERPPSNAIKQMKEEVLRLRLLRGIKNQKQAKVHLRFIFPFDLVKDPQKKKMIRVRLDERDMWVLSRFFLYPRMQSNLQTFGEVLLSHSSTHKSLVHHARLQLTLQVIRLLASLHHYGLVHTYLRPVDIVLDQRGGVFLTGFEHLVRDGASAVSPIGRGFAPPETTAERMLPFGQHHPTLMTFAFDTWTLGLAIYWIWCADLPNTDDAALGGSEWIFRSCKNIPQPVRALLEGFLRYPKEDRLLPLQAMETPEYEQLRTELSAALPLYQTDGEPTREGGAPPSGTSQPDEAGAAEAVTAI” here?
Answer: soluble

Question: With “MHHHHHHSSGRENLYFQGIPTISELKKDRIIPHVFPNDKIDLNVDLFISFKAGKEVNHGNVLDIAGTGSVPRNIKFSEEPPDGYCFVLFMVDPDYPSRLRPDGKEYIHWVVSGIKTKELIKGTQKNCVTILPYVGPSIKKGTGLHRISFIISLIKEEDKDNITGLPHYKGEKYITRVKFNNYESVHNIAQINNMKIVGYNWCQIE” as the sequence, how does the “soluble on expression in E. coli” value read?
Answer: soluble

Question: Which “soluble on expression in E. coli” value does the source give for “MHHHHHHSSGRENLYFQGTGQDALVLGFDWGKFLKDHSYKAAPVSCFKHVPLYDQWEDVMKGMKVEVLNSDAVLPSRVYWIASVIQTAGYRVLLRYEGFENDASHDFWCNLGTVDVHPIGWCAINSKILVPPRTIHAKFTDWKGYLMKRLVGSRTLPVDFHIKMVESMKYPFRQGMRLEVVDKSQVSRTRMAVVDTVIGGRLRLLYEDGDSDDDFWCHMWSPLIHPVGWSRRVGHGIKMSERRSDMAHHPTFRKIYCDAVPYLFKKVRAVYTEGGWFEEGMKLEAIDPLNLGNICVATVCKVLLDGYLMICVDGGPSTDGLDWFCYHASSHAIFPATFCQKNDIELTPPKGYEAQTFNWENYLEKTKSKAAPSRLFNMDCPNHGFKVGMKLEAVDLMEPRLICVATVKRVVHRLLSIHFDGWDSEYDQWVDCESPDIYPVGWCELTGYQLQPPVAAEPATPLKAKEATKKKKKQ” here?
Answer: soluble

Question: Which “soluble on expression in E. coli” value does the source give for “MHHHHHHSSGVDLGTENLYFQSMGFETLVVTSEDGITKIMFNRPKKKNAINTEMYHEIMRALKAASKDDSIITVLTGNGDYYSSGNDLTNFTDIPPGGVEEKAKNNAVLLREFVGCFIDFPKPLIAVVNGPAVGISVTLLGLFDAVYASDRATFHTPFSHLGQSPEGCSSYTFPKIMSPAKATEMLIFGKKLTAGEACAQGLVTEVFPDSTFQKEVWTRLKAFAKLPPNALRISKEVIRKREREKLHAVNAEECNVLQGRWLSDECTNAVVNFLSRKSKL” here?
Answer: soluble

Question: For “MHHHHHHSSGVDLGTENLYFQSMGLSRVRAVFFDLDNTLIDTAGASRRGMLEVIKLLQSKYHYKEEAEIICDKVQVKLSKECFHPYNTCITDLRTSHWEEAIQETKGGAANRKLAEECYFLWKSTRLQHMTLAEDVKAMLTELRKEVRLLLLTNGDRQTQREKIEACACQSYFDAVVVGGEQREEKPAPSIFYYCCNLLGVQPGDCVMVGDTLETDIQGGLNAGLKATVWINKNGIVPLKSSPVPHYMVSSVLELPALLQSIDCKVSMST”, which “soluble on expression in E. coli” value is on record?
Answer: soluble

Question: With “MHHHHHHSSGVDLGTENLYFQSMKYILVTGGVISGIGKGIIASSVGTILKSCGLHVTSIKIDPYINIDAGTFSPYEHGEVFVLDDGGEVDLDLGNYERFLDIRLTKDNNLTTGKIYQYVINKERKGDYLGKTVQVVPHITDAIQEWVMRQALIPVDEDGLEPQVCVIELGGTVGDIESMPFIEAFRQFQFKVKRENFCNIHVSLVPQPSSTGEQKTKPTQNSVRELRGLGLSPDLVVCRCSNPLDTSVKEKISMFCHVEPEQVICVHDVSSIYRVPLLLEEQGVVDYFLRRLDLP” as the sequence, how does the “soluble on expression in E. coli” value read?
Answer: soluble

Question: With “MHHHHHHSSGVDLGTENLYFQSMSVGFIGAGQLAFALAKGFTAAGVLAAHKIMASSPDMDLATVSALRKMGVKLTPHNKETVQHSDVLFLAVKPHIIPFILDEIGADIEDRHIVVSCAAGVTISSIEKKLSAFRPAPRVIRCMTNTPVVVREGATVYATGTHAQVEDGRLMEQLLSSVGFCTEVEEDLIDAVTGLSGSGPAYAFTALDALADGGVKMGLPRRLAVRLGAQALLGAAKMLLHSEQHPGQLKDNVSSPGGATIHALHVLESGGFRSLLINAVEASCIRTRELQSMADQEQVSPAAIKKTILDKVKLDSPAGTAL” as the sequence, how does the “soluble on expression in E. coli” value read?
Answer: soluble

Question: For “MHHHHHHSSGVDLGTENLYFQSNAMNDPKVIVALDYDNLADALAFVDKIDPSTCRLKVGKEMFTLFGPDFVRELHKRGFSVFLDLKFHDIPNTCSKAVKAAAELGVWMVNVHASGGERMMAASREILEPYGKERPLLIGVTVLTSMESADLQGIGILSAPQDHVLRLATLTKNAGLDGVVCSAQEASLLKQHLGREFKLVTPGIRPAGSEQGDQRRIMTPAQAIASGSDYLVIGRPITQAAHPEVVLEEINSSLV”, which “soluble on expression in E. coli” value is on record?
Answer: soluble

Question: Which “soluble on expression in E. coli” value does the source give for “MHHYRVSGWTLATEIPLPHLFPCSAPAGEAAADITLRQGPVPPPPVPLRLDRDGIQVGADGHTVIDIPNCVRIGLTGGRDIMVDPAPGASWPEIQTWLLGPGLGVICHQRGVLPLHACAIRTGKGGLAIVGNSGAGKSTTATALVQRGHRLLGDDVLVVDPDTGLAQPCFPMVKLWDSSRSALDIGQEGQQSVGGKIGKWHMPMLAAFDPVPRPLSAIVHLRADPAARRPVLTRWPRPHAAAVLDAMTYRVYLADALHGRRHVLSAATRLAAHVPVWELVRTADFADLAEMLDMLEGLAGALEHHHHHH” here?
Answer: not soluble

Question: For “MHIRRDQYMNEYVWETCEELDKKIADRVRLIRKRRSISQEKLSKISNVSLGSIKRFETTGQISLLSLTKIAVALNIADDLRNIFTEIPYNSIEEVINERR”, which “soluble on expression in E. coli” value is on record?
Answer: not soluble

Question: Which “soluble on expression in E. coli” value does the source give for “MHKLLYTCNLRCRMCPFWRRKDEKLLSLEEEVLMLKSLEKAGVLFMGFEGGEPLLRRDLEDILEESYKRFYTSLVTNGWLLKDRAKSISNYLDYLFVSIDGIGEVHDKIRGISGAFERAVEGIKEARKYLPVAISFTITKENMDQVKDVIELA” here?
Answer: soluble

Question: With “MHLRLRTKNGLITITVSQQCTIRELSEEIERKTGIEVAKQKILYGFPQRELRADADKPVESVLQSGDSLTVDKLSAETEQERTVESSPASTENAYVRRKVPDDNSCLFHAICYVFRSGSVAQLRHIISETVRLNPDLYTEAFLGKSNHEYSRWILLPETWGGAIELSILSKYFQTEISVFDIQTLRLDRYGEAENYEERVFLLYDGIHYDPIARAFLGASREYDVTVFKIWDNEALVGAKSVAEEANKNRQYTDLASFTLMCRNCGAKLKGETSAVEHAKQTGHTNFTEA” as the sequence, how does the “soluble on expression in E. coli” value read?
Answer: not soluble

Question: With “MHPALWVSKTGLDAQQTNIATISNNLANASTVGYKKSRAVFEDLFYQNINQPGGQSSQNTELPSGLMLGAGSKVVATQKVHTHGNAQTTTNALDMMVEGDGFFQVTLPDGNIGYTRNGQFTLNGEGTLVTSGSGYPVEPEIVI” as the sequence, how does the “soluble on expression in E. coli” value read?
Answer: not soluble

Question: For “MHPRETIRETFVALIKAAKTVAGDNVFNMRDFNLFIETMPAINISTQSETIEDGHDFGLRRRVLTVDVECYATCEDGARFVDQLAWEVEEIFYANPNLNNTVETCRLQNIAFAFGDNGSLALHGAILTFDVTHITNIPCPDEGKATVGVVEPLVGFKPETGMGNKDKYHKIEGDHVRATR”, which “soluble on expression in E. coli” value is on record?
Answer: not soluble

Question: For “MHPRSKLSQAQRELAVDLFEEGYGSRAVANRLGVRREQVRHLEDRFRLHGRLCLVSKPTKKQYSFDTKMEILRRYRTGELKSDLAKEYGLSSPNLISHWVWQVNKGGSDALQPKPKGRPKGSGQSVPMTEEDTLRRENELLKAEVAYLKKLRDLREQRRG”, which “soluble on expression in E. coli” value is on record?
Answer: not soluble

Question: Which “soluble on expression in E. coli” value does the source give for “MHSALWVSKTGMAAQDTKMTAISNNLANVNTVGFKRDRVVFEDLFYSIQRQPGAQVDQVNELPSGVQLGSGVRVVGTQKVFTQGNTQNTTQDLDLAVMGQGFFQIENSDGQIMYTRNGQFHINSEGLMVNSQGLPLEPQIQI” here?
Answer: not soluble

Question: For “MHSKMDCVSRSPLFSPLAPAVKAKLITVTHHRKFYQKGQLIRQPLDHQEGMLILDEGTAKIYALAANGKEKIIELLRSGDVVGQHWLFAPHENQGFIQATSDAWVCSIQYDDFQRLLGESASLSLAMINNFGNQLIEAEKNQLRRDLLDAKARLMAYLRDCAVESGQIEFELPLKKKELANILGITPETLSRQFKQLAAEGQIIVNKRQITIC”, which “soluble on expression in E. coli” value is on record?
Answer: not soluble

Question: With “MHSLQNVIPQQQAHIAELQVYNNKLERDLQNKIGSLTSSIEWYLRSMELDPEIKADIEQQINSIDAINPLHAFDDLESVIRNLISDYDKLFLMFKGLIQRSNYQYSFGSE” as the sequence, how does the “soluble on expression in E. coli” value read?
Answer: soluble

Question: For “MHTDTTRENPQASAPQAADSSQDLAATAPGQLRVIKRNGTVVPYTDDKITVAITKAFLAVEGGTAAASSRIHDTVRRLTEQVTATFKRRMPSGGTIHIEEIQDQVELALMRAGEQKVARDYVIYREARAAERKNAGAASDVAQPHP”, which “soluble on expression in E. coli” value is on record?
Answer: not soluble

Question: Which “soluble on expression in E. coli” value does the source give for “MHTMHIPSGDVLIPKPKLITEETDPLHIIKTRQKTHGRPVTIAGPMVRYSKLPFRQLCREYNVDIVYSPMILAREYVRNEHARISDLSTNNEDTPLIVQVGVNNVADLLKFVEMVAPYCDGIGINCGCPIKEQIREGIGCALIYNSDLLCSMVHAVKDKYGDKLRIETKIRIHEALDETVELCRKLCDAGVDWITIHGRTRRTRSSQPANLDAIKYIIENISDKNVPVIANGDCFKLSDLERITKYTGAHGVMAVRGLLSNPALFAGYTTCPWGCIEKFCYWALEFGGLPFQLAQHHLYCMLENMELKKSLLKKMMNLKNYISLIDWFNKTFEFKRYGEDGFGMGVEIPYKANSCVQRSASVVERQE” here?
Answer: soluble

Question: For “MHTPVTIIGAGLGGLTLARVLHVHAIPVTVYEADSSPSARAQGGLLDIHDYNGQLAVEAAGLTDEFRAIVLEGRQALRVLDPDGTVRLDRADDGTGGRPEVQRGDLRQILLDSLPAGTVRWGHKVSRARPLGDGRHEVTFADGGTVVTRLLVGADGAWSRVRPLLSSATPEYVGKSVVETYLFDAGTRHPVAAKTVGGGMLIAPAPGKEIFAHREKDDTLHAYVGLSRPLDWFAGIDFTDGAAATARIAREFDGWATELTALITDTDVAPALRALHALPAGHRWERVPGVTLLGDAAHLAAPNGEGANLAMLDGAELGTALAAHPGDVEAALAEYERAMFPRSAEAAGDDMIGMDSPDNTAQGLIDLITENGGLEHHHHHH”, which “soluble on expression in E. coli” value is on record?
Answer: soluble

Question: Which “soluble on expression in E. coli” value does the source give for “MHTSELLKHIYDINLSYLLLAQRLIVQDKASAMFRLGINEEMATTLAALTLPQMVKLAETNQLVCHFRFDSHQTITQLTQDSRVDDLQQIHTGIMLSTRLLNDVNQPEEALRKKRA” here?
Answer: soluble

Question: Which “soluble on expression in E. coli” value does the source give for “MHVNGKVALVTGAAQGIGRAFAEALLLKGAKVALVDWNLEAGVQCKAALDEQFEPQKTLFIQCDVADQQQLRDTFRKVVDHFGRLDILVNNAGVNNEKNWEKTLQINLVSVISGTYLGLDYMSKQNGGEGGIIINMSSLAGLMPVAQQPVYCASKHGIVGFTRSAALAANLMNSGVRLNAICPGFVNTAILESIEKEENMGQYIEYKDHIKDMIKYYGILDPPLIANGLITLIEDDALNGAIMKITTSKGIHFQDYDTTPFQAKTQ” here?
Answer: not soluble

Question: With “MIAELHIADDETAVKVLHLQRRAYTIEAQIIGSKALPPLHDTIASLQRCGERFFGYFQGERLVGAIACKRNGKTLRLCRLMVDPDCFRQGIASALLDFVIKQEPSISEIVVTTGSGNAPAIRFYERHGFRAIERIETPERIELTKLVKRSG” as the sequence, how does the “soluble on expression in E. coli” value read?
Answer: not soluble

Question: With “MIAIIDYGMGNIRSVEQALKYIGAAYIVTSDKEEIFRSDGVILPGVGAFPKAMDILEEKDLVRVLQEIGRSRKPLLGICLGMQLLFEKSEELQDCNGLSLLPGVIRKLKVPYKIPHMGWNELKKEGEIALWNGVEDGSFVYYVHSYYADCPNEIVYGISDYGVKVPGFVAKGNIYGAQFHPEKSGDIGMQMLKNFKGVVETWKSSQLSI” as the sequence, how does the “soluble on expression in E. coli” value read?
Answer: soluble
